One may read the Kd as the constant that tells how readily two partners part at equilibrium. The low end stands for a tighter complex, the high end for a looser complex.

The values below come from patent publication US20210388110A1 (published 2021).

The experiment has as its target T1, soluble human CD3ε chain (human, UniProt P07766 23-126, limits assumed).
T1 construct: the text says soluble human CD3ε chain; also called human CD3 epsilon chain
The experiment in a line: SPR (Biacore). On the technique in general: Surface plasmon resonance follows binding to a sensor surface in real time, without labels.

T1 sequence (P07766 23-126 limits assumed): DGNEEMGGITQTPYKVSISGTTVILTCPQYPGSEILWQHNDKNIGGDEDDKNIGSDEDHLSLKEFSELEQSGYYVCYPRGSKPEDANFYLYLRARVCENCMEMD

B1: TR01H062-E22Hh/none-Hi-Kn010G3/L0000-k0 (antibody, human IgG1, kappa, L234A L235A, N297A)
heavy: QVQLVESGGGLVQPGRSLRLSCAASGFTFSNAWMHWVRQAPGKGLEWVAQIKDKSQNYATYYAESVKGRFTISRADSKNSIYLQMNSLKTEDTAVYYCRYVHYAASYGVDAWGQGTTVTVSSASTKGPSVFPLAPSSKSTSGGTAALGCLVKDYFPEPVTVSWNSGALTSGVHTFPAVLQSSGLYSLSSVVTVPSSSLGTQTYICNVNHKPSNTKVDKKVEPKSCDKTHTCPPCPAPEAAGGPSVFLFPPKPKDTLMISRTPEVTCVVVDVSHEDPEVKFNWYVDGVEVHNAKTKPREEQYASTYRVVSVLTVLHQDWLNGKEYKCKVSNKALPAPIEKTISKAKGQPREPQVYTLPPSRCELTKNQVSLSCAVKGFYPSDIAVEWESNGQPENNYKTTPPVLDSDGSFFLVSKLTVDKSRWQQGNVFSCSVMHEALHNHYTQKSLSLSPDYKDDDDK
chain: EPKSSDKTHTCPPCPAPELLGGPSVFLFPPKPKDTLMISRTPEVTCVVVDVSHEDPEVKFNWYVDGVEVHNAKTKPREEQYNSTYRVVSVLTVLHQDWLNGKEYKCKVSNKALPAPIEKTISKAKGQPREPQVCTLPPSRDELTKNQVSLWCLVKGFYPSDIAVEWESNGQPENNYKTTPPVLDSDGSFFLYSKLTVDKSRWQQGNVFSCSVMHEALHNRYTQKSLSLSP
light: DIVMTQSPLSLPVTPGEPASISCRSSQSLVHSNRNTYLHWYQQKPGQAPRLLIYKVSNRFSGVPDRFSGSGSGTDFTLKISRVEAEDVGVYYCGQGTQVPYTFGQGTKLEIKRTVAAPSVFIFPPSDEQLKSGTASVVCLLNNFYPREAKVQWKVDNALQSGNSQESVTEQDSKDSTYSLSSTLTLSKADYEKHKVYACEVTHQGLSSPVTKSFNRGEC
notes: single-arm
B1 returned a Kd of 0.0313 µM.

B2: TR01H066-E22Hh/none-Hi-Kn010G3/L0000-k0 (antibody, human IgG1, kappa, L234A L235A, N297A)
heavy: QVQLVESGGGLVQPGRSLRLSCAASGFTFSNAWMHWVRQAPGKGLEWVAQIKDKSQNYATYYAESVKGRFTISRADSKNSLYLQMNSLKTEDTAVYYCRYVHYAASYGVDAWGQGTTVTVSSASTKGPSVFPLAPSSKSTSGGTAALGCLVKDYFPEPVTVSWNSGALTSGVHTFPAVLQSSGLYSLSSVVTVPSSSLGTQTYICNVNHKPSNTKVDKKVEPKSCDKTHTCPPCPAPEAAGGPSVFLFPPKPKDTLMISRTPEVTCVVVDVSHEDPEVKFNWYVDGVEVHNAKTKPREEQYASTYRVVSVLTVLHQDWLNGKEYKCKVSNKALPAPIEKTISKAKGQPREPQVYTLPPSRCELTKNQVSLSCAVKGFYPSDIAVEWESNGQPENNYKTTPPVLDSDGSFFLVSKLTVDKSRWQQGNVFSCSVMHEALHNHYTQKSLSLSPDYKDDDDK
chain: EPKSSDKTHTCPPCPAPELLGGPSVFLFPPKPKDTLMISRTPEVTCVVVDVSHEDPEVKFNWYVDGVEVHNAKTKPREEQYNSTYRVVSVLTVLHQDWLNGKEYKCKVSNKALPAPIEKTISKAKGQPREPQVCTLPPSRDELTKNQVSLWCLVKGFYPSDIAVEWESNGQPENNYKTTPPVLDSDGSFFLYSKLTVDKSRWQQGNVFSCSVMHEALHNRYTQKSLSLSP
light: DIVMTQSPLSLPVTPGEPASISCRSSQSLVHSNRNTYLHWYQQKPGQAPRLLIYKVSNRFSGVPDRFSGSGSGTDFTLKISRVEAEDVGVYYCGQGTQVPYTFGQGTKLEIKRTVAAPSVFIFPPSDEQLKSGTASVVCLLNNFYPREAKVQWKVDNALQSGNSQESVTEQDSKDSTYSLSSTLTLSKADYEKHKVYACEVTHQGLSSPVTKSFNRGEC
notes: single-arm
Consider B2, for which binding was put at a Kd of 0.0602 µM.

B3: TR01H064-E22Hh/none-Hi-Kn010G3/L0000-k0 (antibody, human IgG1, kappa, L234A L235A, N297A)
heavy: QVQLVESGGGLVQPGRSLRLSCSASGFTFSNAWMHWVRQAPGKGLEWVAQIKDKSQNYATYYAESVKGRFTISRADSKNSIYLQMNSLKTEDTAVYYCRYVHYAASYGVDAWGQGTTVTVSSASTKGPSVFPLAPSSKSTSGGTAALGCLVKDYFPEPVTVSWNSGALTSGVHTFPAVLQSSGLYSLSSVVTVPSSSLGTQTYICNVNHKPSNTKVDKKVEPKSCDKTHTCPPCPAPEAAGGPSVFLFPPKPKDTLMISRTPEVTCVVVDVSHEDPEVKFNWYVDGVEVHNAKTKPREEQYASTYRVVSVLTVLHQDWLNGKEYKCKVSNKALPAPIEKTISKAKGQPREPQVYTLPPSRCELTKNQVSLSCAVKGFYPSDIAVEWESNGQPENNYKTTPPVLDSDGSFFLVSKLTVDKSRWQQGNVFSCSVMHEALHNHYTQKSLSLSPDYKDDDDK
chain: EPKSSDKTHTCPPCPAPELLGGPSVFLFPPKPKDTLMISRTPEVTCVVVDVSHEDPEVKFNWYVDGVEVHNAKTKPREEQYNSTYRVVSVLTVLHQDWLNGKEYKCKVSNKALPAPIEKTISKAKGQPREPQVCTLPPSRDELTKNQVSLWCLVKGFYPSDIAVEWESNGQPENNYKTTPPVLDSDGSFFLYSKLTVDKSRWQQGNVFSCSVMHEALHNRYTQKSLSLSP
light: DIVMTQSPLSLPVTPGEPASISCRSSQSLVHSNRNTYLHWYQQKPGQAPRLLIYKVSNRFSGVPDRFSGSGSGTDFTLKISRVEAEDVGVYYCGQGTQVPYTFGQGTKLEIKRTVAAPSVFIFPPSDEQLKSGTASVVCLLNNFYPREAKVQWKVDNALQSGNSQESVTEQDSKDSTYSLSSTLTLSKADYEKHKVYACEVTHQGLSSPVTKSFNRGEC
notes: single-arm
Regarding B3, binding was put at a Kd of 0.0307 µM.

B4: TR01H065-E22Hh/none-Hi-Kn010G3/L0000-k0 (antibody, human IgG1, kappa, L234A L235A, N297A)
heavy: QVQLVESGGGLVQPGRSLRLSCAASGFTFSNAWMHWVRQAPGKGLEWVAQIKDKSQNYATYYAESVKGRFTISRDDSKNSIYLQMNSLKTEDTAVYYCRYVHYAASYGVDAWGQGTTVTVSSASTKGPSVFPLAPSSKSTSGGTAALGCLVKDYFPEPVTVSWNSGALTSGVHTFPAVLQSSGLYSLSSVVTVPSSSLGTQTYICNVNHKPSNTKVDKKVEPKSCDKTHTCPPCPAPEAAGGPSVFLFPPKPKDTLMISRTPEVTCVVVDVSHEDPEVKFNWYVDGVEVHNAKTKPREEQYASTYRVVSVLTVLHQDWLNGKEYKCKVSNKALPAPIEKTISKAKGQPREPQVYTLPPSRCELTKNQVSLSCAVKGFYPSDIAVEWESNGQPENNYKTTPPVLDSDGSFFLVSKLTVDKSRWQQGNVFSCSVMHEALHNHYTQKSLSLSPDYKDDDDK
chain: EPKSSDKTHTCPPCPAPELLGGPSVFLFPPKPKDTLMISRTPEVTCVVVDVSHEDPEVKFNWYVDGVEVHNAKTKPREEQYNSTYRVVSVLTVLHQDWLNGKEYKCKVSNKALPAPIEKTISKAKGQPREPQVCTLPPSRDELTKNQVSLWCLVKGFYPSDIAVEWESNGQPENNYKTTPPVLDSDGSFFLYSKLTVDKSRWQQGNVFSCSVMHEALHNRYTQKSLSLSP
light: DIVMTQSPLSLPVTPGEPASISCRSSQSLVHSNRNTYLHWYQQKPGQAPRLLIYKVSNRFSGVPDRFSGSGSGTDFTLKISRVEAEDVGVYYCGQGTQVPYTFGQGTKLEIKRTVAAPSVFIFPPSDEQLKSGTASVVCLLNNFYPREAKVQWKVDNALQSGNSQESVTEQDSKDSTYSLSSTLTLSKADYEKHKVYACEVTHQGLSSPVTKSFNRGEC
notes: single-arm
Turning to B4, the Kd turned out to be 0.0431 µM.

B5: TR01H063-E22Hh/none-Hi-Kn010G3/L0000-k0 (antibody, human IgG1, kappa, L234A L235A, N297A)
heavy: QVQLVESGGGVVQPGGSLRLSCAASGFTFSNAWMHWVRQAPGKGLEWVAQIKDKSQNYATYYAESVKGRFTISRADSKNSIYLQMNSLKTEDTAVYYCRYVHYAASYGVDAWGQGTTVTVSSASTKGPSVFPLAPSSKSTSGGTAALGCLVKDYFPEPVTVSWNSGALTSGVHTFPAVLQSSGLYSLSSVVTVPSSSLGTQTYICNVNHKPSNTKVDKKVEPKSCDKTHTCPPCPAPEAAGGPSVFLFPPKPKDTLMISRTPEVTCVVVDVSHEDPEVKFNWYVDGVEVHNAKTKPREEQYASTYRVVSVLTVLHQDWLNGKEYKCKVSNKALPAPIEKTISKAKGQPREPQVYTLPPSRCELTKNQVSLSCAVKGFYPSDIAVEWESNGQPENNYKTTPPVLDSDGSFFLVSKLTVDKSRWQQGNVFSCSVMHEALHNHYTQKSLSLSPDYKDDDDK
chain: EPKSSDKTHTCPPCPAPELLGGPSVFLFPPKPKDTLMISRTPEVTCVVVDVSHEDPEVKFNWYVDGVEVHNAKTKPREEQYNSTYRVVSVLTVLHQDWLNGKEYKCKVSNKALPAPIEKTISKAKGQPREPQVCTLPPSRDELTKNQVSLWCLVKGFYPSDIAVEWESNGQPENNYKTTPPVLDSDGSFFLYSKLTVDKSRWQQGNVFSCSVMHEALHNRYTQKSLSLSP
light: DIVMTQSPLSLPVTPGEPASISCRSSQSLVHSNRNTYLHWYQQKPGQAPRLLIYKVSNRFSGVPDRFSGSGSGTDFTLKISRVEAEDVGVYYCGQGTQVPYTFGQGTKLEIKRTVAAPSVFIFPPSDEQLKSGTASVVCLLNNFYPREAKVQWKVDNALQSGNSQESVTEQDSKDSTYSLSSTLTLSKADYEKHKVYACEVTHQGLSSPVTKSFNRGEC
notes: single-arm
In the case of B5, the affinity, expressed as Kd, was 0.0435 µM.

B6: TR01H067-E22Hh/none-Hi-Kn010G3/L0200-k0 (antibody, human IgG1, kappa, L234A L235A, N297A)
heavy: QVQLVESGGGLVQPGRSLRLSCAASGFTFSNAWMHWVRQAPGKGLEWVAQIKDKSQNYATYYAESVKGRFTISRDDSKNSLYLQMNSLKTEDTAVYYCRYVHYAASYGVDAWGQGTTVTVSSASTKGPSVFPLAPSSKSTSGGTAALGCLVKDYFPEPVTVSWNSGALTSGVHTFPAVLQSSGLYSLSSVVTVPSSSLGTQTYICNVNHKPSNTKVDKKVEPKSCDKTHTCPPCPAPEAAGGPSVFLFPPKPKDTLMISRTPEVTCVVVDVSHEDPEVKFNWYVDGVEVHNAKTKPREEQYASTYRVVSVLTVLHQDWLNGKEYKCKVSNKALPAPIEKTISKAKGQPREPQVYTLPPSRCELTKNQVSLSCAVKGFYPSDIAVEWESNGQPENNYKTTPPVLDSDGSFFLVSKLTVDKSRWQQGNVFSCSVMHEALHNHYTQKSLSLSPDYKDDDDK
chain: EPKSSDKTHTCPPCPAPELLGGPSVFLFPPKPKDTLMISRTPEVTCVVVDVSHEDPEVKFNWYVDGVEVHNAKTKPREEQYNSTYRVVSVLTVLHQDWLNGKEYKCKVSNKALPAPIEKTISKAKGQPREPQVCTLPPSRDELTKNQVSLWCLVKGFYPSDIAVEWESNGQPENNYKTTPPVLDSDGSFFLYSKLTVDKSRWQQGNVFSCSVMHEALHNRYTQKSLSLSP
light: DIVMTQSPLSLPVTPGEPASISCRPSQSPVHSNRNTYLHWYQQKPGQAPRLLIYKVSNRFSGVPDRFSGSGSGTDFTLKISRVEAEDVGVYYCGQGTQVPYTFGQGTKLEIKRTVAAPSVFIFPPSDEQLKSGTASVVCLLNNFYPREAKVQWKVDNALQSGNSQESVTEQDSKDSTYSLSSTLTLSKADYEKHKVYACEVTHQGLSSPVTKSFNRGEC
notes: single-arm
With B6, the Kd came out at 0.0603 µM. The Kd values of the last two molecules are within 1.5-fold of each other.
